According to patent US20260234667A1:

Target: human CXCR3 isoform 1 (human) (UniProt P49682)
Assay: cell-based or functional assay

Chain of UniProt P49682 (P49682 whole entry, canonical isoform): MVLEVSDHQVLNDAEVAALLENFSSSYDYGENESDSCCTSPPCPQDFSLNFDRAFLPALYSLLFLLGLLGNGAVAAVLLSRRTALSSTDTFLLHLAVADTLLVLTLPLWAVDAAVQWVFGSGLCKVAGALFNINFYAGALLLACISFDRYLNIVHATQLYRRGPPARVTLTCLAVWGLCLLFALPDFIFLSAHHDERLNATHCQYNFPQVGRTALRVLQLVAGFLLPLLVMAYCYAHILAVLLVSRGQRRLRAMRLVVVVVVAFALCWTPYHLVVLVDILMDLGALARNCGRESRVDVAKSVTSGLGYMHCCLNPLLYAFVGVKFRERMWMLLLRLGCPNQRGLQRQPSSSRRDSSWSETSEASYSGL

B1: ITAC (CXCL11) (ligand, UniProt O14625 22-94, looked up, species assumed)
C-X-C motif chemokine 11: FPMFKRGRCLCIGPGVKAVKVADIEKASIMYPSNNCDKIEVIITLKENKGQRCLNPKSKQARLIIKKVERKNF
Which results are given for B1?
migration of B cells to 100 ng/ml ITAC (CXCL11), fold increase against control cells: 10 fold; migration of CD4 cells to 100 ng/ml ITAC (CXCL11), fold increase against control cells: > 4 fold; migration of CD8 cells to 100 ng/ml ITAC (CXCL11), fold increase against control cells: 2.5 fold
